The values below are quoted from earlier work in article PMC11379947 (Nature Communications, 2024).

In this data set the target is T1, ICOS (Homo sapiens, UniProt Q9Y6W8).
T1 sequence (Q9Y6W8 21-199): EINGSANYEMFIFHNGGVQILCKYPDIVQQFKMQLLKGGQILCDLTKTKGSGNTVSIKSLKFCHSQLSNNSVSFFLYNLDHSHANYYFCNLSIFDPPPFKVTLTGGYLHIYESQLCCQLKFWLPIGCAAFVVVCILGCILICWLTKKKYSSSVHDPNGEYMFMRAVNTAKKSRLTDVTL
The conditions noted are these: read-out: KD of natural ICOS ligand; cited from earlier work.

B1: ICOSL: the natural ICOS ligand (protein, UniProt O75144 19-302, looked up)
ICOS ligand: DTQEKEVRAMVGSDVELSCACPEGSRFDLNDVYVYWQTSESKTVVTYHIPQNSSLENVDSRYRNRALMSPAGMLRGDFSLRLFNVTPQDEQKFHCLVLSQSLGFQEVLSVEVTLHVAANFSVPVVSAPHSPSQDELTFTCTSINGYPRPNVYWINKTDNSLLDQALQNDTVFLNMRGLYDVVSVLRIARTPSVNIGCCIENVLLQQNLTVGSQTGNDIGERDKITENPVSTGEKNAATWSILAVLCLLVVVAVAIGWVCRDRCLQHSYAGAWAVSPETELTGHV
Take B1: the Kd was 722 nM.

The Kd is the constant that tells how readily two partners part at equilibrium.
